The values that follow come from article PMC4031048, “Six Homeoproteins and a linc-RNA at the Fast MYH Locus Lock Fast Myofiber Terminal Phenotype”.

This series addresses T1, Six1 (Mus musculus, UniProt Q62231 1-284).
T1 sequence: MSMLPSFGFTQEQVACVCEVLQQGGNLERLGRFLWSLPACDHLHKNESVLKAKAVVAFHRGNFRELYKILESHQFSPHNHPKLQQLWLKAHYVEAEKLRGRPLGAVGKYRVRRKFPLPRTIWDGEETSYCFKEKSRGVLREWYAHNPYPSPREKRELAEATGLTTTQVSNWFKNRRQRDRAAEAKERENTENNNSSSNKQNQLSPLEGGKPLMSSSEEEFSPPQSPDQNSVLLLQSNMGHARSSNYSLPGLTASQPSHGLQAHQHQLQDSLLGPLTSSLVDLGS
The series is described as follows: competition EMSA; 10x and 100x vs labeled Myogenin MEF3; EMSA as previously described (ref 38); buffer, salt, pH and temperature not given. Particulars: protein: ivt; blunt. A general note: Mobility shift assays separate free from complexed probe on a gel.

B1: Enh4 (dsDNA)
DNA 1: GGGGTAAGAAATCTGACGACAGG
DNA 2: CCTGTCGTCAGATTTCTTACCCC
B1: the binding result is “binds”.

B2: Enh1 (dsDNA)
DNA 1: CTCTTGGGTAACTGGAGCCCCTC
DNA 2: GAGGGGCTCCAGTTACCCAAGAG
In the case of B2, the binding result was “binds”.

B3: Enh2 (dsDNA)
DNA 1: TCATAAGGAAATCTAAGTCAACC
DNA 2: GGTTGACTTAGATTTCCTTATGA
With B3, the binding result is recorded as “binds”.

B4: Enh3 (dsDNA)
DNA 1: TGTAAGAGAAACTGAAATAAAAT
DNA 2: ATTTTATTTCAGTTTCTCTTACA
Turning to B4, the binding result is listed as “binds”.

B5: Enh6 (dsDNA)
DNA 1: CGTCAAGGAAACCTTATTCCATC
DNA 2: GATGGAATAAGGTTTCCTTGACG
B5: the binding result is “binds”.
